Results from publication PMC11928938.

Legend:
Assay in all cases: SEC; size-exclusion chromatography on Superdex 200 of purified recombinant hGlyRS; dimer and monomer forms fractionated; dimer to monomers
[1] = target: human glycyl-tRNA synthetase H418R variant (hGlyRS-H418R), recombinant (human)
[2] = target: human glycyl-tRNA synthetase S211F variant (hGlyRS-S211F), recombinant (human)
[3] = target: human glycyl-tRNA synthetase, wild type (hGlyRS-WT), recombinant (human)

With “human glycyl-tRNA synthetase H418R variant (hGlyRS-H418R), recombinant (enzyme)” the dimer:monomer (D:M) ratio, dimer part (dimer parts against 3.0 monomer parts) [1] was 7 and the stoichiometry N [1] was 2.
“human glycyl-tRNA synthetase S211F variant (hGlyRS-S211F), recombinant (enzyme)” showed a dimer:monomer (D:M) ratio, dimer part (dimer parts against 6.2 monomer parts) [2] of 3.8.
In the case of “human glycyl-tRNA synthetase, wild type (hGlyRS-WT), recombinant (enzyme)”, the dimer:monomer (D:M) ratio, dimer part (dimer parts against 0.9 monomer parts) [3] is reported as 9.1 and the stoichiometry N [3] is reported as 2.
